Reference: patent US20240025971A1

Assays:
Assay in all cases: cell-based or functional assay
[1] = target: SARS-CoV-2 Alpha (B.1.1.7) full-length Spike protein (SARS-CoV-2) (UniProt P0DTC2)
[2] = target: SARS-CoV-2 Beta (B.1.351) full-length Spike protein (SARS-CoV-2) (UniProt P0DTC2)
[3] = target: SARS-CoV-2 Delta (B.1.617.2) full-length Spike protein (SARS-CoV-2) (UniProt P0DTC2)
[4] = target: SARS-CoV-2 Delta-plus (B.1.617.2.1) full-length Spike protein (SARS-CoV-2) (UniProt P0DTC2)
[5] = target: SARS-CoV-2 Epsilon (B.1.427/9) full-length Spike protein (SARS-CoV-2) (UniProt P0DTC2)
[6] = target: SARS-CoV-2 Gamma (P.1.B.1.1.28) full-length Spike protein (SARS-CoV-2) (UniProt P0DTC2)

Measured: Pseudovirus Neutralization

Anti-Nucleocapsid (Neg Control) (antibody)
> 50 µg/mL: all assays above
